In general, Kd refers to the concentration at which binding is half-saturated. Read a high Kd as a looser complex.

Among the data in paper PMC6042391 are Kd values, retold here.

The assay deals with T1, tau peptide V1089–24.
T1 sequence (peptide, phosphoserine at Ser422; biotin (position not stated)): SSTGSIDMVDSPQLATLA
Put plainly: BLI; biotinylated peptide V1089–24 (1 μg/ml) on streptavidin biosensors; 13 Fab concentrations in ForteBio's kinetics buffer; 600 s association, 600 s dissociation; steady state analysis.

Positions count from the first letter of the chain named.

B1: Fab-dmCBTAU-22.1 (Fab, V domains shown)
VH: QVQLVQSGAEVKKPGAPVKVSCETSGYRFSDYFVHWVRQAPGQGPEWIGRIRPNSGGTKYAQKFQGRVTMTRDMSMNTAYMELSGLRSDDTAVYYCVRGHCDGTTCSRAYWGQGTLVTVSS
VL: DVVMTQSPLSLPVTPGEPASISCRSSQSLLHRSGHKYLHWYLQRPGQSPQVLIYLGSNRASGVPDRFSGSGSGTDFTLKISRVEAEDVGLYYCMQTLQTPWTFGQGTKVEIK
In the case of B1, the Kd was determined as 240 nM.

B2: Fab-CBTAU-22.1 (Fab, V domains shown)
VH: B1 VH with F33N, R52S
VL: B1 VL
Consider B2, for which the Kd is 5600 nM.
